Measurements: patent publication US20220389111A1 (SHANGHAI EPIMAB BIOTHERAPEUTICS, published 2022)
Read-outs that look alike come from different tables or passages of the source.

T1: cynomolgus monkey CD39 on CHO-K1 cells (cynomolgus monkey, UniProt A0A7N9DGH8 1-510)
T1 construct: whole, on cells; also called CHO-K1-cyCD39; CHO-K1-cyno CD39
T1 sequence: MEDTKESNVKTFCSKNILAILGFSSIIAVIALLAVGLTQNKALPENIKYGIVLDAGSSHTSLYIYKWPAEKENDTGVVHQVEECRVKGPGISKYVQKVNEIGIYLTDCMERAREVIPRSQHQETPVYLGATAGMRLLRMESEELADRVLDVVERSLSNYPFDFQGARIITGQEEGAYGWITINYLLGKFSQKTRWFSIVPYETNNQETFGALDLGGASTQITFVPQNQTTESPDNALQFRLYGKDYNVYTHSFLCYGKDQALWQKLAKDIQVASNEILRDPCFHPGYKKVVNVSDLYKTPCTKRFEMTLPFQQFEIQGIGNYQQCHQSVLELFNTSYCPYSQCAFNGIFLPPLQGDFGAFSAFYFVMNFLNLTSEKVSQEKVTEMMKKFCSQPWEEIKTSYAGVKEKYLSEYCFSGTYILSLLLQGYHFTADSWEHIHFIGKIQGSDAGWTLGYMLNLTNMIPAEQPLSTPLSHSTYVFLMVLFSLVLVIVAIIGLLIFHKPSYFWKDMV

T2: human CD39 on the cell membrane (CHO-K1-human CD39 stable cell line); SK-MEL-28 melanoma cells; human CD4+ T … (human, UniProt P49961 1-510)
T2 construct: Overexpressed on CHO-K1 cells or endogenous on SK-MEL-28 / T cells; the assay field says which cells; also called huCD39; CHO-K1-huCD39
T2 sequence: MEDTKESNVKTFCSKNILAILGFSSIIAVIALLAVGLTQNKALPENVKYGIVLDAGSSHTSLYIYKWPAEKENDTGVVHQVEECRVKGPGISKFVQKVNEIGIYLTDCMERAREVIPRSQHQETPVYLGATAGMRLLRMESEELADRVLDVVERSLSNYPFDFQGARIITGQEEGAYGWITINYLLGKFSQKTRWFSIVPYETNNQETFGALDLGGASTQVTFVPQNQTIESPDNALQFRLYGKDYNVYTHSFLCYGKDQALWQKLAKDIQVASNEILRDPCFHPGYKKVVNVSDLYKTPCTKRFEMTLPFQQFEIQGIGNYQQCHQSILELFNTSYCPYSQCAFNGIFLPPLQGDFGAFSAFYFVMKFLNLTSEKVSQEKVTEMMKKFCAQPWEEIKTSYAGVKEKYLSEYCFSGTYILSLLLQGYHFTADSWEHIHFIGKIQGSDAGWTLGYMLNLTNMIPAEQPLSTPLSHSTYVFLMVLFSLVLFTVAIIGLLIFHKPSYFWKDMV

T3: huCD39-ECD-His (human, UniProt P49961 38-478)
T3 construct: also called C-terminally hexahistidine-tagged human CD39 extracellular domain
T3 sequence: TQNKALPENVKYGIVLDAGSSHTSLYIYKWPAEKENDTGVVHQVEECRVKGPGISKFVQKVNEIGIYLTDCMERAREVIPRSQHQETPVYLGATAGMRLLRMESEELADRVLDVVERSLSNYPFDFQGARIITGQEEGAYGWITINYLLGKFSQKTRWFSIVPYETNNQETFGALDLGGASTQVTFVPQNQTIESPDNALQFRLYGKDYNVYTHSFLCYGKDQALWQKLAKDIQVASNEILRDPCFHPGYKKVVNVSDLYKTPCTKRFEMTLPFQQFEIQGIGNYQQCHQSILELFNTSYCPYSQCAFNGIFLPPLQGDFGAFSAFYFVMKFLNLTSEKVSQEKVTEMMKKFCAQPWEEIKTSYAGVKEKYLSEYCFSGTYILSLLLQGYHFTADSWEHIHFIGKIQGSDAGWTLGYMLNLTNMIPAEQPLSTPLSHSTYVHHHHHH


Legend:
[1] = target: T1, cynomolgus monkey CD39 on CHO-K1 cells; assay: FACS on CHO-K1-cyno CD39 cells
Method: (§1) The ability of the purified antibodies to bind to cell membrane human CD39, cynomolgus monkey CD39, or mouse CD39 was determined by FACS analysis. CHO-K1 cells stably transfected to overexpress human CD39, cynomolgus monkey CD39, or mouse CD39 (CHO-K1-huCD39 cells, CHO-K1-cyCD39 cells, and CHOK1-muCD39 cells) were generated for use in this assay. Briefly, SK-MEL-28 melanoma cells (ATCC) or CD39 overexpressing stable CHO cell lines were resuspended in PBS containing 2% FBS (FACS buffer) and seeded at 1-5×10⁵ cells/well into U-bottomed plates. Anti-CD39 mAbs or isotype control antibodies diluted in FACS buffer were added to the wells and incubated for 1 hour at 4° C. After washing with FACS buffer, 1:1000 diluted Fluorescence-labeled secondary antibody (Life Technologies/ThermoFisher Scientific) were added and incubated for 30 min. at 4° C. Unbound secondary mAb was removed by washing with FACS buffer three times, and the samples were then read on a FACS instrument. The data were processed by GraphPad software.

[2] = target: T2, human CD39 on the cell membrane …; assay: FACS on CHO-K1-human CD39 cells
Method: as §1

[3] = target: T2, human CD39 on the cell membrane …; assay: cell-based or functional assay
[4] = target: T2, human CD39 on the cell membrane …; assay: cell-based or functional assay; remark: listed apart in the source
[5] = target: T2, human CD39 on the cell membrane …; assay: cell-based or functional assay; remark: listed apart in the source
[6] = target: T1, cynomolgus monkey CD39 on CHO-K1 cells; assay: FACS on CHO-K1-cyno CD39 cells; remark: listed apart in the source
Method: as §1
(§2) Accordingly, a G55A mutation was introduced in the CDR-H2 in HuEM0004-38-17, -18, and -19 to generate HuEM0004-38-21 (SEQ ID NO:32 (VH) and SEQ ID NO:17 (VK)), HuEM0004-38-22 (SEQ ID NO:33 (VH) and SEQ ID NO:17 (VK)), and HuEM0004-38-23 (SEQ ID NO:34 (VH) and SEQ ID NO:17 (VK)). The three humanized anti-CD39 antibodies were characterized by FACS binding assay and for cell-based inhibition of ATPase activity.

[7] = target: T2, human CD39 on the cell membrane …; assay: FACS on CHO-K1-human CD39 cells; remark: listed apart in the source
Method: as §1, §2

[8] = target: T2, human CD39 on the cell membrane …; assay: FACS on SK-MEL-28 cells (endogenous human CD39)
Method: as §1, §2

[9] = target: T3, huCD39-ECD-His; assay: BLI (Octet RED96), antibody captured on AHC biosensor, antigen in solution
Method: Anti-CD39 antibodies were characterized for affinities and binding kinetics using the Octet®RED96 biolayer interferometry system (Pall FortéBio LLC). Purified anti-CD39 antibodies were captured by Anti-Mouse IgG Fc Capture (AMC) biosensors or Anti-Human IgG Fc Capture (AHC) biosensors at a concentration of 100 nM for 30 seconds. Biosensors were then dipped into running buffer (1X pH7.2 PBS, 0.05% Tween 20, 0.1% BSA) for 60 seconds to check baseline. Binding was measured by dipping sensors into purified recombinant human CD39 protein, 3-fold serial diluted from 200 nM, for 120 seconds. Dissociation was followed by dipping sensors into running buffer for 600 seconds. The association and dissociation curves were fitted to a 1:1 Langmuir binding model using Fortebio Data Analysis software (Pall FortéBio LLC).

EC50 [1] | EC50 [2] | IC50 (read off the curve), cell-surface huCD39 ATPase activity [3] | cell-based CD39 ATPase inhibition assay (SK-MEL-28 cells), concentration of essentially complete inhibition [4] | IC50 (read off the curve), cell-surface hCD39 ATPase activity [5] | EC50 [6] | EC50 [7] | EC50 [8] | Kd [9] | koff [9] | kon [9] | Binder
10.6 nM | 12.7 nM |  |  |  |  |  |  |  |  |  | mAb636 (antibody, V domains shown, mouse anti-human CD39 hybridoma mAb, IgG2a, κ) VH: QVQLQQPGTELVMPGASVTLSCKASGYSFISYWMHWVKQRPGQGLEWIGEIDPSDDYTNYNQNFKGKATLTVDRSSSTAYMQLNSLTSEDSAVYYCAREENGIYYYNKGYLDVWGTGTTVTVSS VL: DIVMTQTAFSNPVTLGTSASISCRSSKSLLHSNGITYLYWYLQKPGQSPQVLIYQMSNLASGVPDRFSCSGSGTDFTLRITRVEAEDVGFYYCAQNLELPYTFGGGTKLEMK
2.18 nM | 1.92 nM | ~0.07 nM |  |  |  |  |  |  |  |  | mAb629 (antibody, V domains shown, mouse anti-human CD39 hybridoma mAb, IgG2a, κ) VH: QVQLKQSGPGLVRPSQSLSITCTVSGFSLTRFGIHWVRQSPGKGLEWLGVIWGGGSTDYDAGFISRLTITKDHSKSQVLFKINSLEADDTAMYYCATKDDDYLEAWFAHWGQGTLVTVSA VL: NIVMTQSPKSVSMSVGERVTLSCKASENVGTYVSWYQQKSERSPRLLIYGASSRYTGVPDRFTGSGSATDFTLTISSVQAEDLADYHCGQSYSYPYTFGGGTKLEIK
 |  |  | ~1 nM | ~0.2 nM | 7.42 nM | 7.21 nM | 4.71 nM | 2.53 nM | 0.000348 s⁻¹ | 138000 M⁻¹ s⁻¹ | HuEM0004-38-22 (antibody, human IgG1, kappa, L234A L235A, V domains shown, humanized mAb638 with G55A) VH: EVQLVQSGAEVKKPGASVKVSCKASGYTFTSFWMHWVRQAPGQGLEWMGNINPRNAATKYNEKFRSRVTLTADKSISTAYMELSRLRSDDTAVYYCAREDYDEIYYAMDSWGQGTTVTVSS VL: ENVLTQSPATLSLSPGERATLSCSASSSVIYMYWFQQKPGQSPRVLIYDTSNLASGVPARFSGSGSGTDYTLTISSLEPEDFAVYYCQQWSTYPLTFGQGTKLEIKR
 |  |  | ~1 nM | ~0.2 nM | 7.18 nM | 8.36 nM | 5.47 nM | 2.55 nM | 0.000365 s⁻¹ | 143000 M⁻¹ s⁻¹ | HuEM0004-38-23 (antibody, human IgG1, kappa, L234A L235A, V domains shown, humanized mAb638 with G55A) VH: EVQLVQSGAEVKKPGASVKVSCKASGYTFTSFWMHWVRQAPGQGLEWIGNINPRNAATKYNEKFRSRVTLTADKSISTAYMELSRLRSDDTAVYYCAREDYDEIYYAMDSWGQGTTVTVSS VL: ENVLTQSPATLSLSPGERATLSCSASSSVIYMYWFQQKPGQSPRVLIYDTSNLASGVPARFSGSGSGTDYTLTISSLEPEDFAVYYCQQWSTYPLTFGQGTKLEIKR
 |  |  | ~1 nM | ~0.2 nM | 6.14 nM | 6.34 nM | 4.75 nM | 2.28 nM | 0.000316 s⁻¹ | 139000 M⁻¹ s⁻¹ | HuEM0004-38-21 (antibody, human IgG1, kappa, L234A L235A, V domains shown, humanized mAb638 with G55A) VH: EVQLVQSGAEVKKPGASVKVSCKASGYTFTSFWMHWVRQAPGQGLEWMGNINPRNAATKYNEKFRSRVTMTADKSISTAYMELSRLRSDDTAVYYCAREDYDEIYYAMDSWGQGTTVTVSS VL: ENVLTQSPATLSLSPGERATLSCSASSSVIYMYWFQQKPGQSPRVLIYDTSNLASGVPARFSGSGSGTDYTLTISSLEPEDFAVYYCQQWSTYPLTFGQGTKLEIKR
